Test results: US20110059093A1

Target: T1, Tau fragment Ser-Ile-Asp-Met-Val-Asp-Ser-Pro-Gln-Leu-Ala-Thr-Leu-Ala-Asp (SEQ ID NO:10) (human)
T1 sequence (peptide, biotinylated): SIDMVDSPQLATLAD
Experiment: ELISA, biotinylated peptide on streptavidin plate, absorbance 405 nm-492 nm

B1: Mab2.10.3 (anti-Tau pS422 antibody) (antibody, IgG1, V domains shown)
VH: EVQLVESGGDLVRPGGSLKLSCAASGFTFRTYGMSWVRQTADKRLEWVATISSGGTYTYYADNVRERFTISRDNARDTLYLQMSRLESDDTAMYYCTRRYGYDGGGSFDVWGAGTRVTVSS
VL: EIVMTQAAPSVPVTPGESASISCRSNKSLLHSNGNTYLCWFLQRPGQSPQLLIYRMSTLAPGVPDRFSGSGSGTAFTLRISRLEAEDVGVYYCMQHIEYPLTFGAGTKLELK
For B1, the Max O.D. Tau fragment binding was 30 mE.
